For data set [1], the target named is T1, MaMsvR (Methanosarcina acetivorans C2A) (UniProt Q8TQT2).
T1 sequence: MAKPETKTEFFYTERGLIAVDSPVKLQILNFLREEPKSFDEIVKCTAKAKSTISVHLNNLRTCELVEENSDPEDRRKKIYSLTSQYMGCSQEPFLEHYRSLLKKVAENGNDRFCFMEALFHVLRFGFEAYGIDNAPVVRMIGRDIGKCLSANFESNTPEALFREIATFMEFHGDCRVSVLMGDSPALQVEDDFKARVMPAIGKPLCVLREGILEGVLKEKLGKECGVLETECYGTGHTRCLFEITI
The data set can be described thus: EMSA. The following applies: EMSA at room temperature, 10 nM DNA and 200 nM MsvR (50 nM DNA and 1 uM protein for 50 bp oligos), with or without 5 mM DTT; binding buffer as in cited ref 9 …. (In general: Mobility shift assays separate free from complexed probe on a gel.)

Data set [2] has as its system T2, MaMsvR C206A C206A (Methanosarcina acetivorans C2A), ORF:da4acb06.
T2 sequence: T1 sequence with C206A
The data set can be described thus: EMSA. The following applies: EMSA at room temperature, 10 nM DNA and 200 nM MsvR (50 nM DNA and 1 uM protein for 50 bp oligos), with or without 5 mM DTT; binding buffer as in cited ref 9 ….

The subject of data set [3] is T3, MaMsvR C232A C232A (Methanosarcina acetivorans C2A), ORF:da4acb06.
T3 sequence: T1 sequence with C232A
The data set can be described thus: EMSA. The following applies: EMSA at room temperature, 10 nM DNA and 200 nM MsvR (50 nM DNA and 1 uM protein for 50 bp oligos), with or without 5 mM DTT; binding buffer as in cited ref 9 ….

The test system of data set [4] is T4, MaMsvR C240A C240A (Methanosarcina acetivorans C2A), ORF:da4acb06.
T4 sequence: T1 sequence with C240A
The data set can be described thus: EMSA. Conditions: EMSA at room temperature, 10 nM DNA and 200 nM MsvR (50 nM DNA and 1 uM protein for 50 bp oligos), with or without 5 mM DTT; binding buffer as in cited ref 9 ….

The target in data set [5] is Methanosarcina acetivorans MsvR (methanogen specific V4R domain regulator), N-terminal Strep-tag (Methanosarcina acetivorans C2A). The data set is described as follows: SEC; Superdex 200 HiLoad 16/600; 20 mM Tris pH 8, 10 mM MgCl2, 200 mM KCl; 0.5 ml/min; non-reduced MaMsvR (0.65 mg loaded) and reduced MaMsvR (0.84 mg, 2 mM beta-ME in the elution buffer); calibrated with ferritin, conalbumin, carbonic anhydrase, ribonuclease A. In general terms: SEC sorts molecules by how far they enter the pores of the column.

The target is the same in data set [6]. The data set is described as follows: SDS-PAGE without boiling, with immunoblot (Strep-tag antibody); 1 pmol protein in Laemmli sample buffer without or with 5 mM DTT, room temperature five minutes, not boiled; reduced and boiled sample as control; oligomers that withstand SDS, likely stabilised by disulfide bonds. For orientation: In western blotting, separated proteins are transferred to a membrane and probed.

The target of data set [7] is T5, MaMsvR (Methanosarcina acetivorans C2A, UniProt Q8TQT2 1-246).
T5 sequence: T1 sequence
The data set is described as follows: EMSA; reducing; EMSA at room temperature, 10 nM DNA and 200 nM MsvR (50 nM DNA and 1 uM protein for 50 bp oligos), with or without 5 mM DTT; binding buffer as in cited ref 9; protein stock in 20 mM Tris pH 8, 10 mM MgCl2, 200 mM KCl, glycerol. The following applies: protein: recombinant; tags: N-terminal Strep-tag; chain copies: 2; blunt.

For data set [8], the target named is T5, MaMsvR. The data set can be described thus: EMSA; 5 mM DTT; 1 uM protein, 50 nM DNA; EMSA at room temperature, 10 nM DNA and 200 nM MsvR (50 nM DNA and 1 uM protein for 50 bp oligos), with or without 5 mM DTT; binding buffer as in cited ref 9; protein stock in 20 mM Tris pH 8, 10 mM MgCl2, 200 mM KCl, glycerol. Conditions: protein: recombinant; tags: N-terminal Strep-tag; chain copies: 2; blunt.

Where a chain is given by its changes, count along the chain named.

For the molecule “TTACTTTGCCGTTTCCCCCCATTTTCTTTATATCTTTTTATATCTGTATTATTATATTTCAAACATGATTATTCGTAGTCACGCGAACGTTTTATATATTCAAAACGCAACTTATCTAAAGATATTATGGCAAAACCTGAGACCAAAACTGAATTCTTTTATACCGAAAGAGGGCTCATAGCCGTAGACAGCCCTGTTAAACTCCAGATCCTGAATTTTCTCAGGG (double strand) [Ma PmsvR (PCR)]”, the binding entry in data set [1], in data set [2], in data set [3] and in data set [4] was “binds” each time.

Regarding “AAAGTAAGAAATTCTCTCTATATGTATGGGTTTATGATATCTCAGACCTGAAAATATGCGGATAAAATTCGGATAAAACAGGATTTCCTGATTTGGAGGGAAAGTAATGAAGTGTTACGAATGTGCCAGAGAGGGCAAAGATACGGATGCTGTGGGAATTTGTATCGTATGTGGAAGAGGAGTTTGCAAAGAACACCTTATCCATGAGGAAACACCTGCGTGGGAAGGCGACTATCCTAT (double strand) [Ma P3734]”, in data set [1], the binding entry is given as “no binding”.

For the molecule “AGATCCCCCAGCGTCTCCAGAACTTGCGGAGTGAATCCCATTTTTTCTCCCATACTCTCCAGTATCTCTTCATGCTCTGTCATTTTTCCAGTCTCCTTACTCCGATAACTACCAGCTGTTGATATTTATATTGGTTATTTATATTTATTATTAATTAATATTTCTCAAATCTGTGTTCAGGCCTTTTACTTCCTCATTCCTGTCCAAAGGCCCTTTATTAAAGTCCGCATCCTTTGTTATGGGCTGCACA (double strand) [Ma P3736]”, in data set [1], the binding entry is recorded as “no binding”.

Take “GCAGATCTCGCAGCGGTACTTTTCTCCTTTTCTGGATACAGCCATAGCTACTTCACCTCCTTGCTTCTGAATTTAAATACCTCAAAACTTTCAAGCGGGCTTTCCCCTTCCCTGTAATCCCGAAATTACTCCGGGTTTCACCAACACTCATACATGTTAACCATTCTTTGTATATAATTGTAAGGACTTTTTAAAAAGTAACATAAATTTTTTCCTTCTATTCGGGTATGTCTTA (double strand) [Ma P4664]”: the binding result in data set [1] is on record as “no binding”.

Regarding “AGGCTTTACAAAGTAAATAAAGGGGAGAAAAAGGGTTAAAACCTGAATAAGAAGTAAAGAAAACTCCGATATAAGCAAAAGTATTTATAGAATCCGATTACAAAATCAGAGGTTAGAAGGAATTTATATTAACAAAAAGAAGCTTGGAGGATAATATGGCAAAAGTTATACCATTTGCACCAATCGAACGCCTGATAAGGACGGCTGGTGCCCACAGAGTAAGTGAGA (double strand) [Ma PhmaA]”, in data set [1], the binding entry is recorded as “no binding”.

Regarding “TCAGCTTTTCTTACGTTTGACCGTTATAGGAATAATTTCGGCCTTCAACTCTGCAATGGCTACACCCAGGGGGTCCAGCCGCCCGTCATCATCAACCAGGACAGGAGCCCCCATTGCTATCTGCAATGCTCTTGCACCTACAATTCGTGCACGCTCGAACCGGGTATACTTTT (double strand) [Ma rpoK]”, the binding entry in data set [1] is “no binding”.

As a reminder, the stoichiometry N is a count of units in the complex or per binding partner. Consider “Methanosarcina acetivorans MsvR (methanogen specific V4R domain regulator), N-terminal Strep-tag (natural protein)”, for which the stoichiometry N in data set [5] and in data set [6] was 2 throughout.

Take “CCGAAAACATTCCTGGCAATCTCCGGGATATTATATATTTCCATACTTTTCCTCCAACTCTCTTCTGAATCATTTACTCTCAAAATAAAATGTACCAAAATACGGTACACAGAAATCTTTAACTGTTCCCCACAAGCTCAAAACAGTATTATGGTGTAGCTATGTTAATTCGATATATTTATTATATTGATTAAATATTTTTGATAAGAACCTCTTTCTATTTTTACCTGTTCGTTCTGTCAGA (double strand) [Ma P3381]”: the binding entry in data set [1] is “no binding”.

B1: Ma PmsvR flanks replaced (dsDNA)
DNA 1: GAGGGAATGAAATCCTCTTCGTAGTCACGCGAAAATGGACAAGTCTGATT
DNA 2: AATCAGACTTGTCCATTTTCGCGTGACTACGAAGAGGATTTCATTCCCTC
B1: the binding result with MaMsvR [7] is listed as “no binding”.

B2: Ma PmsvR 1 bp deletion between boxes (dsDNA)
DNA 1: TATTTCAAACATGATTATTCGTAGCACGCGAACGTTTTATATATTCAAA
DNA 2: TTTGAATATATAAAACGTTCGCGTGCTACGAATAATCATGTTTGAAATA
Turning to B2, the binding result with MaMsvR [7] is recorded as “binds”.

B3: Ma PmsvR 50 bp box A mutant (dsDNA)
DNA 1: TATTTCAAACATGATTAGGGGTAGTCACGCGAACGTTTTATATATTCAAA
DNA 2: TTTGAATATATAAAACGTTCGCGTGACTACCCCTAATCATGTTTGAAATA
Take B3: the binding result in the data set with MaMsvR [8] was “no binding”.

B4: Ma PmsvR 50 bp box B mutant (dsDNA)
DNA 1: B3 DNA 1 with G18T, G19T, G20C, C30G, A32G, A33G
DNA 2: B3 DNA 2 with T18C, T19C, G21C, C31G, C32A, C33A
As to B4, the binding result in the data set with MaMsvR [8] was “no binding”.

B5: Ma PmsvR 1 bp insertion between boxes (dsDNA)
DNA 1: TATTTCAAACATGATTATTCGTAGTTCACGCGAACGTTTTATATATTCAAA
DNA 2: TTTGAATATATAAAACGTTCGCGTGAACTACGAATAATCATGTTTGAAATA
B5: the binding result with MaMsvR [7] is on record as “binds”.

For the origin of these results see PMC3729527, “Redox-sensitive DNA binding by homodimeric Methanosarcina acetivorans MsvR is modulated by cysteine residues”.
